This experiment addresses T1, MLO-Y4 cell surface proteins (Mus musculus, UniProt P59242).
T1 construct: endogenous in cells; host or cells: MLO-Y4
T1 sequence (P59242 1-1191): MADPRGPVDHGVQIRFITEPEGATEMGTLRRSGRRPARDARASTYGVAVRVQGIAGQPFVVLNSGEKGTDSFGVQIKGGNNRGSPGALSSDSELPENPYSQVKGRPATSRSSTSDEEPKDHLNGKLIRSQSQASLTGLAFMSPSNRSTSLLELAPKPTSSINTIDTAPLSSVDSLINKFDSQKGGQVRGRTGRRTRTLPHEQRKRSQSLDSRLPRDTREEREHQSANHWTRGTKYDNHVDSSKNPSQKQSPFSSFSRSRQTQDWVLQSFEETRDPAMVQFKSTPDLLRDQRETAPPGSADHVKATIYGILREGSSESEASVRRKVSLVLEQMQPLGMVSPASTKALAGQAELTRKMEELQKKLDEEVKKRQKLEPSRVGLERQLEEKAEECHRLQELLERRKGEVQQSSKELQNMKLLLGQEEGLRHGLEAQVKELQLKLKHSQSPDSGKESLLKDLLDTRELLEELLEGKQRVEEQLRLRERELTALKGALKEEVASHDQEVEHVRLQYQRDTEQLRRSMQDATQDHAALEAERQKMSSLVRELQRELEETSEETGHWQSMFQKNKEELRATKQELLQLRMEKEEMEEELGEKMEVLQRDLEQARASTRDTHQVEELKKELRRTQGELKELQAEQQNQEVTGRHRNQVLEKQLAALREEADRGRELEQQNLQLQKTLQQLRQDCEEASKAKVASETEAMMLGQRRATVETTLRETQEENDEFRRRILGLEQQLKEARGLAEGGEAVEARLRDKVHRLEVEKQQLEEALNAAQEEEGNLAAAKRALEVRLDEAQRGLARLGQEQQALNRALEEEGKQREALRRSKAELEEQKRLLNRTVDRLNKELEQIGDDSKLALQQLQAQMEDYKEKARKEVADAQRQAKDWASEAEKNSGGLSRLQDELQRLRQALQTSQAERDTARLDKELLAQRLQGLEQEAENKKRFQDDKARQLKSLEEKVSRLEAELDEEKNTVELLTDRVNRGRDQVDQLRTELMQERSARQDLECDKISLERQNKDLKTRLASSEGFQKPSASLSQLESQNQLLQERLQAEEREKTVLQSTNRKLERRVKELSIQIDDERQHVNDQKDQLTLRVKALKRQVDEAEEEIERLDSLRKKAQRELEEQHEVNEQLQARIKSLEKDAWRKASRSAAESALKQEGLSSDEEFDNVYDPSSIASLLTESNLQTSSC
The experiment in a line: Crosslinking/co-immunoprecipitation/mass spectrometry (TMT quantitative proteomics) to identify irisin receptors. Format: binding. To be noted: co-precipitated protein Cgn (CING_MOUSE). The method, boiled down:
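Mouse MLO-Y4 cells were switched to serum-free FreeStyle medium for 4 h, chilled, then exposed to 10 nM His-tagged irisin (or adipsin as control) for 20 min. Cells were crosslinked with 1.5 mM DTSSP (30 min, ice), and bound proteins were pulled down on Ni-NTA and eluted with 250 mM imidazole. Eluates were separated by SDS-PAGE, trypsin-digested in gel, TMT 6-plex labelled and quantified by MS3-based LC-MS/MS on an Orbitrap Fusion Lumos.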

In the case of adipsin, the TMT signal-to-noise ratio came out at 200.289.
